Measured values: patent publication US20080107658A1 (AstraZeneca / MedImmune, published 2008)

Legend:
Experiment in all cases: cell-based or functional assay
[1] = molecular target: mouse nerve growth factor (mouse, UniProt P01139 122-241)
[2] = molecular target: human nerve growth factor (beta-NGF) (human, UniProt P01138 122-241)
[3] = molecular target: rat nerve growth factor (beta-NGF) (rat, UniProt P25427 122-241)
Sequence of rat nerve growth factor (beta-NGF) (P25427 122-241): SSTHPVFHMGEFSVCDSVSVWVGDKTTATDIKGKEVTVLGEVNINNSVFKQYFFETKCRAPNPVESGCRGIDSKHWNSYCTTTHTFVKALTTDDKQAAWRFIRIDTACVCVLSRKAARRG

Sequence of human nerve growth factor (beta-NGF) (P01138 122-241): as the sequence (P25427 122-241) above, with T3S, V6I, M9R, T37M, A60D, E65D, T92M, D94G, A117V, G120A counted along it
Sequence of mouse nerve growth factor (P01139 122-241): as the sequence (P25427 122-241) above, with G40A, K50R, P61S, D94E, A117T counted along it

Binder	IC50, FLIPR calcium mobilisation [1]	IC50, FLIPR calcium mobilisation [2]	IC50, PC12 cell survival [2]	IC50, FLIPR calcium mobilisation [3]	IC50, PC12 cell survival [3]
1227H8 human IgG4 (antibody, V domains shown) VH: QMQLVQSGAEVKKTGSSVKVSCKASGHTFAYHYLHWVRQAPGQGLEWMGGIIPIFGTTNYAQRFQDRVTITADESTSTAYMELSSLRSEDTAVYYCASADYAWESYQPPQINGVWGRGTMVTVSS VL: QSVLTQPPSVSAAPGQKVTITCSGSTSNIGNNYVSWYQQHPGKAPKLMIYDVSKRPSGVPDRFSGSKSGNSASLDISGLQSEDEADYYCAAWDDSLSEFFFGTGTKLTVL	0.48 nM	0.44 nM	0.7 nM	0.43 nM	35 nM
1230D8 human IgG4 (antibody, V domains shown) VH: QMQLVQSGAEVKKTGSSVKVSCKASGYTFPYHYLHWVRQAPGQGLEWMGGIIPIFGTTNYAQRFQDRVTITADESTSTAYMEFSSLRSEDTAVYYCASADYVWESYHPATSLSLWGRGTMVTVSS VL: QSVLTQPPSVSAAPGQKVTISCPGSTSNIGNNYVSWYQQRPGKAPKLMIYDVSKRPSGVPDRFSGSKSGNSASLDISELQSEDEADYYCAAWDDSLSEFLFGTGTKLTVL	0.37 nM	0.31 nM	0.71 nM	0.29 nM	37 nM
G1165D4 human IgG4 (antibody, V domains shown) VH: QVQLVQSGAEVKKPGSSVKVSCKASGGTFSTYGISWVRQAPGQGLEWMGGIIPIFDTGNSAQSFQGRVTITADESTSTAYMELSSLRSEDTAVYYCARSSRIYDLNPSLTAYYDMDVWGQGTMVTVSS VL: QSVLTQPPSVSAAPGQKVTISCSGSSSNIENNYVSWYQQLPGTAPKLLIYDNNKRPSGIPDRFSGSKSGTSATLGITGLQTGDEADYYCGTWDSSLSAWVFGGGTKLTV	0.27 nM	0.32 nM	0.86 nM	0.33 nM	2.63 nM
1131D7 human IgG4 (antibody, V domains shown) VH: EVQLVQSGAEVKKPGSSVKVSCKASGGTFSTYGISWVRQAPGQGLEWIGGIIPIFDTGNSAQSFQGRVTITADESTSTAYMEVSSLRSDDTAVYYCASSSRIYDFNSSLIAYYDMDVWGQGTMVTVSS VL: QAVLTQPSSVSTPPGQKVTISCSGSSSNIGNNYVSWYQQLPGTAPKLLIYDNNKRPSGIPDRFSGSKSGTSATLGITGLQTGDETDYYCGTWDSSLSAWVFSGGTKLTVL	71 nM	117 nM	670 nM	37 nM	
1230H7 human IgG4 (antibody, V domains shown) VH: EMQLVQSGAEVKKPGSSVKVSCKASGGTFSTYGISWVRQAPGQGLEWIGGIIPIFDTGNSAQSFQGRVTITADESTSTAYMEVSSLRSDDTAVYYCASSSRIYDFNSALISYYDMDVWGQGTMVTVSS VL: QAVLTQPSSVSTPPGQKVTISCSGSSSNIGNNYVSWYQQLPGTAPKLLIYDNNKRPSGIPDRFSGSKSGTSATLGITGLQTGDEADYYCGTWDSSLSAWVFGGGTKLTV	0.15 nM	0.27 nM	0.42 nM	0.18 nM	0.32 nM
1218H5 human IgG4 (antibody, V domains shown) VH: EVQLVQSGAVVKKPGSSVKVSCKASGGTFSTYGISWVRQAPGQGLEWIGGIIPIFDTGSSAQSFQGRVTITADESTSTAYMEVSSLRSDDTAVYYCASSSRIYDLNPSLTAYYDMDVWGQGTMVTVSS VL: QAVLTQPSSVSTPPGQKVTISCSGSSSNTGNNYVSWYQQLSGTAPKLLIYDNNKRPSGIPDRFSGSKSGTSATLGITGLQTGDEADYYCGTWDSSLSAWVFGGGTKLTVL	0.15 nM	0.33 nM	0.47 nM	0.13 nM	
G1230H7 human IgG4 (antibody, V domains shown) VH: QVQLVQSGAEVKKPGSSVKVSCKASGGTFSTYGISWVRQAPGQGLEWMGGIIPIFDTGNSAQSFQGRVTITADESTSTAYMELSSLRSEDTAVYYCARSSRIYDFNSALISYYDMDVWGQGTMVTVSS VL: QSVLTQPPSVSAAPGQKVTISCSGSSSNIGNNYVSWYQQLPGTAPKLLIYDNNKRPSGIPDRFSGSKSGTSATLGITGLQTGDEADYYCGTWDSSLSAWVFGGGTKLTVL	0.25 nM	0.31 nM	2.5 nM	0.34 nM	7.5 nM
1175H8 human IgG4 (antibody, V domains shown) VH: EVQLVQSGAEVKKPGSSVKVSCKASGGTFSTYGISWVRQAPGQRLEWIGGIIPIFDTGNSAQSFQGRVTITADESTSTAYMEVSSLRSDDTAVYYCASSSRIYDATTGLTPYYDMDVWGQGTMVTVSS VL: QAVLTQPSSVSTPPGQKVTISCSGSSSNIGNNYVSWYQQLPGTAPKLLIYDNNKRPSGIPDRFSGSKSGTSATLGITGLRTGDEADYYCGTWDSSLSAWVFGGGTKLTVL	0.16 nM	0.37 nM	1.1 nM	0.15 nM	
1127F9 human IgG4 (antibody, V domains shown) VH: EVQLVQSGAEVKKPGSSVKVSCKASGGTFSTYGISWVRQAPGQGLEWIGGIIPIFDTGNSAQSFQGRVTITADESTSTAYMKVSSLRSDDTAVYYCASSSRIYDYIPGMRPYYDMDVWGQGTMVTVSS VL: QAVLTQPSSVSTPPGQKVTISCSGNSSNIGNNYVSWYQQLPGTAPKLLIYDNNKRPSGIPDRFSGSRSGTLATLGITGLQTGDEADYYCGTWDSSLSAWVFGGGTKLTVL	0.2 nM	0.36 nM	0.59 nM	0.14 nM	
1126F1 human IgG4 (antibody, V domains shown) VH: EVQLVQTGAEVKKPGSSVKVSCKASGGTFSTYGISWVRQAPGQGLEWIGGIIPIFDTGNSAQSFQGRVTITADESTSTAYMEVSSLRSDDTAVYYCASSSRIYDANRQAVPYYDMDVWGQGTMVTVSS VL: QAVLTQPSSVSTPPGQMVTISCSGSSSDIGNNYVSWYQQLPGTAPKLLIYDNNKRPSGIPDRFSGSKSGTSATLGITGLQTGDEADYYCGTWDSSLSAWVFGGGTKLTVL	0.22 nM	0.35 nM	2.9 nM	0.15 nM	
1127D9 human IgG4 (antibody, V domains shown) VH: EVQLVQSGAEVKKPGSSVKVSCKASGGTFSTYGISWVRQAPGQGLEWIGGIIPIFDTGNSAQSFQGRVTITADESTSTAYMEVSSLRSDDTAVYYCASSSRIYDYHTIAYYDMDVWGQGTMVTVSS VL: QAVLTQPSSVSTPPGQKVTISCSGSSSNIGNNYVSWYQQLPGTAPKLLIYDNNKRPSGIPDRFSGSKSGTSATLGITGLQTGDEADYYCGTWDSSLSAWVFGGGTKLTVL	0.21 nM	0.4 nM	0.57 nM	0.22 nM	
1126H5 human IgG4 (antibody, V domains shown) VH: EVQLVQSGAEVKKPGSSVKVSCKASGGTFSTYGISWVRQAPGQGLEWIGGIIPIFDAGNSAQSFQGRVTITADESTSTAHMEVSSLRSEDTAVYYCASSSRIYDHHIQKGGYYDMDVWGQGTMVTVSS VL: QAVLTQPSSVSTPPGQKVTISCSGSSSNIGNNYVSWYQQLPGTAPKLLIYDNNKRPSGIPDRFSGSKSGTSATLGITGLQTGDEADYYCGTWDSSLSAWVFGGGTKLTVL	0.23 nM	0.38 nM	8.7 nM	0.15 nM	
1214A1 human IgG4 (antibody, V domains shown) VH: EVQLVQSGAEVKKPGSSVRVSCKASGGTFSTYGISWVRQAPGQGLEWIGGIIPIFDTGNSAQSFQGRVTITADESTSTAYMEVSSLRSDDTAVYYCASSSRIYDAHLQAYYDMDVWGQGTMVTVSS VL: QAVLTQPSSVSTPPGQKVTISCSGSSSNIGNNYVSWYQQLPGTAPKLLIYDNNKRPPGIPDRFSGSKSGTSATLGITGLQTGDEADYYCGTRDSSLSAWVFGGGTKLTVL	0.14 nM	0.26 nM	0.52 nM	0.16 nM	0.43 nM
1211G10 human IgG4 (antibody, V domains shown) VH: EVQLVQSGAEVRKPGSSVKVSCKAYGGTFSTYGISWVRQAPGQGLEWVGGIIPIFDTRNSAQSFQGRVTITADESTSTAYMEVSSLRSDDTAVYYCASSSRIYDMVSTLIPYYDMDVWGQGTMVTVSS VL: QAVLTQPSSVSTPPGQKVTISCSGSSSNIGNNYVSWYQQLPGTAPKLLIYDNNKRPSGIPDRFSGSKSGTSATLGITGLQTGDEADYYCGTWDSSLSAWVFGGGTKLTVL	0.15 nM	0.37 nM	0.58 nM	0.16 nM	
1126G5 human IgG4 (antibody, V domains shown) VH: EVQLVQSGAEVKKPGSSVKVSCKASGGTFSTYGISWVRQAPGQGLEWIGGIIPIFDTGNSAQSFQGRVTITADESTSTAYMEVSSLRSDDTAVYYCASSSRIYDFTSGLAPYYDMDVWGQGTMVTVSS VL: QAVLTQPSSVSTPPGQKVTISCSGSSSNIGNNYVSWYQQLPGTAPKLLIYDNNKRPPGIPDRFSGSKSGTSATLGITGLQTGDEADYYCGTWDSSLSTWVFGGGTKLTVL	0.16 nM	0.23 nM	1.5 nM	0.16 nM	
1214D10 human IgG4 (antibody, V domains shown) VH: EVQLVQSGAEAKKPGSSVKVSCKASGGTFSTYGISWVRQAPGRGLEWIGGIIPIFDTGNSAQSFQGRVAITADESTSTAYMEVSSLRSDDTAVYYCASSSRIYDAHLNHHGYYDMDVWGQGTMVTVSS VL: QAVLTQPSSVSTPPGQKVTISCSGSSSNIGNNYVSWYQQLPGTAPKLLIYDNNKRPSGIPDRFSGSKSGTSATLGITGLQAGDEADYYCGTWDSSLSAWVFGGGTKLTVL	0.13 nM	0.29 nM	0.35 nM	0.14 nM	
